Measured values as given in publication doi:10.1101/390104 (bioRxiv, 2018).
Where a chain is given by its changes, count along the chain named. In names and notes the source's numbering stands. Each block holds one binder with its values, some of them ahead of it.

Legend:
[1] = target: the molecule itself; assay: NMR
[2] = target: T1, MalE (E. coli, UniProt P0AEX9 27-396 = MBP); assay: ITC
[3] = target: T1, MalE; assay: 19F NMR
[4] = target: T1, MalE; assay: NMR

B1: wild type HdeA (natural protein, E. coli, UniProt P0AES9 22-110, looked up)
chain: ADAQKAADNKKPVNSWTCEDFLAVDESFQPTAVGFAEALNNKDKPEDAVLDVQGIATVTPAIVQACTQDKQANFKDKVKGEWDKIKKDM
binding result [1]: binds | stoichiometry N [2]: ~0.5

B2: HdeA mutant with 19F probe incorporated at site 78 (natural protein)
chain: B1 chain with W16F, V78W, W82F
modifications: 5-fluorotryptophan at 78
binding result [3]: binds

B3: HdeA-82-fluoro (natural protein)
chain: B1 chain with W16F
modifications: 5-fluorotryptophan at 82
binding result [4]: binds

B4: HdeA mutant with 19F probe incorporated at site 63 (natural protein)
chain: B1 chain with W16F, V63W, W82F
modifications: 5-fluorotryptophan at 63
binding result [3]: binds

B5: HdeA mutant with 19F probe incorporated at site 35 (natural protein)
chain: B1 chain with W16F, F35W, W82F
modifications: 5-fluorotryptophan at 35
binding result [3]: binds

B6: HdeA mutant with 19F probe incorporated at site 55 (natural protein)
chain: B1 chain with W16F, I55W, W82F
modifications: 5-fluorotryptophan at 55
binding result [3]: binds

Results, then the binder that gave them:

binding result [3]: binds
B7: HdeA mutant with 19F probe incorporated at site 7 (natural protein)
chain: B1 chain with A7W, W16F, W82F
modifications: 5-fluorotryptophan at 7

binding result [3]: binds
B8: HdeA mutant with 19F probe incorporated at site 24 (natural protein)
chain: B1 chain with W16F, V24W, W82F
modifications: 5-fluorotryptophan at 24

binding result [3]: binds
B9: HdeA mutant with 19F probe incorporated at site 49 (natural protein)
chain: B1 chain with W16F, V49W, W82F
modifications: 5-fluorotryptophan at 49

binding result [3]: binds
B10: HdeA mutant with 19F probe incorporated at site 28 (natural protein)
chain: B1 chain with W16F, F28W, W82F
modifications: 5-fluorotryptophan at 28

binding result [4]: binds
B11: HdeA-F28W mutant (natural protein)
chain: B1 chain with F28W

binding result [4]: binds
B12: HdeA-16-fluoro (natural protein)
chain: B1 chain with W82F
modifications: 5-fluorotryptophan at 16
